Patent US20210070855A1 (NANJING LEGEND BIOTECH, published 2021)
Where two headings read alike, the source gives them in different places. Blank lines part the entries; values can stand above or below the binder they belong to.

How the values were obtained:
human CD47 on cells [1] = target: T1, human CD47 on cells (human, UniProt Q08722 19-323); assay: flow cytometry on human red blood cells
T1 construct: also called CHO-K1/huCD47; human CD47 over-expressed in CHO-K1 cells

[2] = target: T2, cynomolgus monkey CD47 on CHO-K1 cells (cynomolgus monkey, UniProt A0A5F8AK49 19-323 (rhesus entry)); assay: flow cytometry on CHO-K1/cyno CD47 cells; unit taken from the axis
T2 construct: whole, on cells; also called CHO-K1/cyno CD47; CHO-K1/cynoCD47
Protocol: (§1) Briefly, binding to cell-expressed cyno CD47 was evaluated on cynomolgus monkey CD47 over-expressing CHO cells. Anti-CD47 antibody dilution series was prepared in FACS buffer. CHO-K1/cynomolgus monkey CD47 cell were transferred to a 96-well U-bottom plate and add CD47 antibody dilution. After 30 minutes incubation at 4° C., cells were washed twice with FACS buffer. […] The cells were washed twice with wash buffer, and then analyzed for binding by using FACSCalibur (BD Bioscience, San Jose, Calif.) and Flowjo software.

[3] = target: T2, cynomolgus monkey CD47 on CHO-K1 cells; assay: as above; remark: listed apart in the source
Protocol: as §1

human CD47 on cells [4] = target: T1, human CD47 on cells; assay: flow cytometry, blocking of human SIRPα binding to CHO-K1/huCD47 cells; the box on the sheet is labelled EC50; unit taken from the axis
Protocol: After 30 minutes incubation at 4° C., cells were washed twice with FACS buffer.

human CD47 on cells [5] = target: T1, human CD47 on cells; assay: flow cytometry on red blood cells
human CD47 on cells [6] = target: T1, human CD47 on cells; assay: flow cytometry on CHO-K1/huCD47 cells; unit taken from the axis
Protocol: Binding to cell-expressed human CD47 was evaluated on human CD47 over-expressing CHO cells (GenScript, Cat #M00581). Anti-CD47 antibody dilution series was prepared in FACS buffer. CHO-K1/human CD47 cells were transferred to a 96-well U-bottom plate and anti-CD47 antibody dilution was added. […] The cells were then washed twice with wash buffer. Cells were analyzed for binding by FACSCalibur (BD Bioscience, San Jose, Calif.) and Flowjo software.

[7] = target: T2, cynomolgus monkey CD47 on CHO-K1 cells; assay: flow cytometry on CHO-K1/cynoCD47 cells; unit taken from the axis
Protocol: as §1

human CD47 on cells [8] = target: T1, human CD47 on cells; assay: flow cytometry, blocking of human SIRPα binding to CHO-K1/huCD47 cells; the box on the sheet is labelled EC50; unit taken from the axis; remark: listed apart in the source
human CD47 on cells [9] = target: T1, human CD47 on cells; assay: flow cytometry on red blood cells; unit taken from the axis
human CD47 on cells [10] = target: T1, human CD47 on cells; assay: flow cytometry on CHO-K1/huCD47 cells (FL2-H channel); unit taken from the axis
human CD47 on cells [11] = target: T1, human CD47 on cells; assay: flow cytometry, blocking of human SIRPα binding to CHO-K1/huCD47 cells; B6H12 is the positive control
human CD47-His protein = target: T3, human CD47-His protein (human, UniProt Q08722 19-139, limits assumed); assay: SPR (Biacore T200), antibody captured, human CD47-His as analyte, 1:1 model
T3 construct: It includes the signal peptide and the membrane-spanning region, which a soluble protein would lack; not shown: His tag

human CD47 on cells [12] = target: T1, human CD47 on cells; assay: flow cytometry, blocking of human SIRPα binding to CHO-K1/huCD47 cells

EC50 (read off the curve) (human CD47 on cells [1]): ~0.01 µg/mL
EC50 [2]: 0.931 nM
EC50 [3]: 0.931 nM
IC50 (human CD47 on cells [4]): 1.08 nM
B1: 107F11F10 (antibody, V domains shown)
VH: EVQLQQSGAEFVKPGASVKLSCTASGFNIEDTYMHWVKQRPEQGLEWIGMIDPANGKTKYGPRFQDKATVTADTSSNTANLQLSSLTSEDTAVYYCADGIGYYVGAMDYWGQGTSVTVSS
VL: DIQMNQSPSSLSASLGDTITITCHASQNINVWLSWYQQKPGNIPKLLIYKASNLHTGVPSRFSGSGSGTGFTLTISSLQPEDIATYYCQQGHSYPYTFGGGTKLEIK
notes: purified murine anti-CD47 hybridoma antibody; same VH and VL as 107F11B11 and 107F11C4

EC50 (read off the curve) (human CD47 on cells [5]): ~3 nM
EC50 (human CD47 on cells [6]): 0.551 nM
EC50 [7]: 0.491 nM
IC50 (human CD47 on cells [8]): 1.42 nM
B2: 108C10A6_Chimeric hIgG1 (antibody, V domains shown)
VH: QMQLQQSGPQLVRPGASVKISCKTSGYSFTHHWIHWMKQRPGQGLEWIGMIDPSDSETRLSQKFKDKATLTVDASSSTAYMQLNSPTSEDSALYFCARLGRYYFDYWGQGTTLTVSS
VL: NIVMTQSPRSMSMSVGERVTLSCKASENVGTYISWYQQKPDQSPKLLIYGASNRYTGVPDRFTGSGSGTDFTLTISTVQAEDLADYHCGESYGHLYTFGGGTKLEIKR
notes: also called CD47-108C10A6_Chimeric huIgG1; chimeric 108C10A6

EC50 (human CD47 on cells [9]): 7.74 nM
EC50 [2]: 13.3 nM
EC50 [3]: 13.3 nM
EC50 (human CD47 on cells [10]): 2.31 nM
IC50 (read off the curve) (human CD47 on cells [11]): ~6 nM
IC50 (human CD47 on cells [8]): 5.4 nM
B3: B6H12 (antibody, V domains shown)
VH: EVQLVESGGDLVKPGGSLKLSCAASGFTFSGYGMSWVRQTPDKRLEWVATITSGGTYTYYPDSVKGRFTISRDNAKNTLYLQIDSLKSEDTAIYFCARSLAGNAMDYWGQGTSVTVSS
VL: DIVMTQSPATLSVTPGDRVSLSCRASQTISDYLHWYQQKSHESPRLLIKFASQSISGIPSRFSGSGSGSDFTLSINSVEPEDVGVYYCQNGHGFPRTFGGGTKLEIK

EC50 (human CD47 on cells [9]): 3.18 nM
EC50 (human CD47 on cells [6]): 0.586 nM
EC50 [7]: 0.477 nM
Kd (human CD47-His protein): 1.5 nM
koff (human CD47-His protein): 0.00046 s⁻¹
kon (human CD47-His protein): 310000 M⁻¹ s⁻¹
IC50 (read off the curve) (human CD47 on cells [12]): ~1 nM
B4: 108VH4.M4_VL1.M1-hIgG4PE (antibody)
heavy: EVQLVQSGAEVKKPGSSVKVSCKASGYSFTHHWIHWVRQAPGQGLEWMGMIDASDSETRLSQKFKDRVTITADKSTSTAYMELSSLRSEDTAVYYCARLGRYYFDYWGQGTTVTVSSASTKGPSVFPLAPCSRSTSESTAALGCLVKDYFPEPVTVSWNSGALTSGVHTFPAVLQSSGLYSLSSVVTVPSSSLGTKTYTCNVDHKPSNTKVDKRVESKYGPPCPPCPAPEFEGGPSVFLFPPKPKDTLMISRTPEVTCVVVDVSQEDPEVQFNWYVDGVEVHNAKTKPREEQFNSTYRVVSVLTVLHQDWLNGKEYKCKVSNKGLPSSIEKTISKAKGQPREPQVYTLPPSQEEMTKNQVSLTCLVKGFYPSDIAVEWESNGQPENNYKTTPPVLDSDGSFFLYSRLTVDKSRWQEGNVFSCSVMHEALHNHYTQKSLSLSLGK
light: EIVLTQSPATLSLSPGERATLSCRASENVGTYISWYQQKPGQAPRLLIYGASNRYTGIPARFSGSGSGTDFTLTISSLEPEDFAVYYCGESYGHLYTFGGGTKVEIKRTVAAPSVFIFPPSDEQLKSGTASVVCLLNNFYPREAKVQWKVDNALQSGNSQESVTEQDSKDSTYSLSSTLTLSKADYEKHKVYACEVTHQGLSSPVTKSFNRGEC
notes: also called 108VH4.M4_VL1.M1-hlgG4PE; 108VH4.M4_VL1.M1-hIgG4PE-Ka
